This data set in a line: soluble on expression in E. coli; label from the status in PepcDB or PDB records.
With “MKPDAHHVKQFLLRLQDDICQTLSAVDGANFVEDSWRREAGGGGRSRVLRNGGIFEQAGVNFSHVHGDAMPASATAHRPELAGRSFEAMGVSLVVHPHNPYIPTSHANVRFFIAEKPGADPVWWFGGGFDLTPYYGFEEDAVHWHRTARDLCQPFGDDVYPRYKKWCDDYFFLKHRNEQRGVGGLFFDDLNTPDFDHCFDFMQAVGNGYTRAYLPIVERRKAMVWGERERNFQLYRRGRYVEFNLVWDRGTLFGLQTGGRTESILMSMPPLVRWEYDWQPEAGSPEAALSEFIQVRDWILEHHHHHH”, the “soluble on expression in E. coli” value is listed as “soluble”.

On to “MLLSTKSKKLIRTQYFTTPGILMRGRSHPVGDFKVQNKNPHFNDISVGKRIRYRRKMLGLSQKQLGHSLGVTFQQIQKYEKGINRVGAGRLQEIATLLDVSISFFYADISTKEHVSYPRNKGISNKEEDFLLKSFRELKPKKQKAILCLLSD”, for which the “soluble on expression in E. coli” value is given as “not soluble”.

In the case of “MATSKLQAIWNHPAGPKTIHFWAPTFKWGISIANIADFAKPPEKLSYPQQIAVTCTGVIWSRYSMVINPKNWNLFSVNVAMAGTGIYQLARKIKHDYATEAEPAVASE”, the “soluble on expression in E. coli” value is “soluble”.

For the sequence “MSLTETQSLELAKELISRPSVTPDDRDCQKLMAERLHKIGFAAEEMHFGNTKNIWLRRGTKAPVVCFAGHTDVVPTGPVEKWDSPPFEPAERDGRLYGRGAADMKTSIACFVTACERFVAKHPNHQGSIALLITSDEEGDALDGTTKVVDVLKARDELIDYCIVGEPTAVDKLGDMIKNGRRGSLSGNLTVKGKQGHIAYPHLAINPVHTFAPALLELTQEVWDEGNEYFPPTSFQISNINGGTGATNVIPGELNVKFNFRFSTESTEAGLKQRVHAILDKHGVQYDLQWSCSGQPFLTQAGKLTDVARAAIAETCGIEAELSTTGGTSDGRFIKAMAQELIELGPSNATIHQINENVRLNDIPKLSAVYEGILVRLLAGNAVEGGSHHHHHH”, the “soluble on expression in E. coli” value is reported as “soluble”.

Consider “MGSDKIHHHHHHYKDLSQLKSEVDRLCRLCPWDWTFFNGNCYFFSKSQRDWHDSMTACKEMGAQLVIIKSHEEQSFLQQTSKKNSYTWMGLSDLNKEGEWYWLDGSPLSDSFEKYWKKGQPNNVGGQDCVEFRDNGWNDAKCEQRKFWICKKIATTCLS”, for which the “soluble on expression in E. coli” value is recorded as “not soluble”.

With “MGSDKIHHHHHHMPFRRPCAINRPPLTSGCQGHPLSSRRAAQGPGGFFYRHKDMAMTQKRALGLDFGTTNTVMALSDTGSASHSMRFTSSAGTDDSMRTALSFMKDAGLGAAALHVEAGQAAIRQFIDNAGDCRFLQSIKTFAASPLFQGTLIFAKRQSFEDLMEVFLRKLKTYAGSEWPGDVSTVIAGRPVRFAGSNPDETLALARYNEALTRAGFPEIHYVYEPVAAAYYFAQSLKKDANVLVADFGGGTTDYSLIRFETHAGKLSATPIGHSGVGVAGDHFDFRMIDNLVSPEIGKGSKFKSFDKVLDVPSGYYVNFGRWNQLSIFKTSKEFTDLKSLVRSALEPDKLELFIDLVEHDEGYPLYQAISATKMALSSAQEAEFNFSPLGKAGRKMVKRSDFNNWIADDLAKIEGALDEVLEKTKVAPEAIDKVFLTGGTSFVPAVRELFTRRFDADRIESGGELLSIAHGLAMIGESGDIQRWTA”, the “soluble on expression in E. coli” value is recorded as “not soluble”.

As to “MPRFAANLSMMFTEVPFIERFAAARKAGFDAVEFLFPYNYSTLQIQKQLEQNHLTLALFNTAPGDINAGEWGLSALPGREHEAHADIDLALEYALALNCEQVHVMAGVVPAGEDAERYRAVFIDNIRYAADRFAPHGKRILVEALSPGVKPHYLFSSQYQALAIVEEVARDNVFIQLDTFHAQKVDGNLTHLIRDYAGKYAHVQIAGLPDRHEPDDGEINYPWLFRLFDEVGYQGWIGCEYKPRGLTEEGLGWFDAWRGS”, the “soluble on expression in E. coli” value was “soluble”.

With “GPGSMSAIVPAAHAREDMGGCAPCRVSSFHPCEGDGAEEKECNASSGADAAAAAEPLDPLRCFSAFDVLRDVLAACTCAPALSRSTEKGADSPSLLPGAPLPSAWRTEQTREALRTLVDLVAADVGVSSARHGQGEAPEEAEIARSRLSVDALLLHLTTEGPNLRAALRRRRRQLLPMPPRDDATTQSEREACDEAHAACEEDEALAALTRCAASVALINRDLGSSARKGRKAVQTAASCVLQTRTALSLLRTSSLVHQPLRAGAGHAAASRSAIAAADVSAYWCSTGCMGLDQALGGGGFRSGWVTEVYGEAGAGKTQLGLQCLLQQAATDVCHAAVALALASGADFTSLAHMATTTGMCGSRSPVVKCMEVFDRDAVEAARCAVVYLVSEDVPTSRLGPLAAAAVGRAVRAVRLHPLVNQLPSGVVKTVWGCVERTCTVPTVLSRLQIRHVASVAEVLRLLEPLPHPQLAQVSRTSSPPNVIPNRAQRPRNSNLVEAVRVLAGTHGRAVVVLDSVAAAVVAGQWDMQGVAQADATVTALSLRLRQAAMTHNWCIVVTNQVRAIPTTARQRQCALAPIKRARSPTTSSTASAPSVTRTVVPALGFSWASAAHCRVFLRKSLSHGVRQLVLRHAPSHPPAQASYLITEHGIEDA”, the “soluble on expression in E. coli” value is recorded as “not soluble”.

Regarding “MVERLEALFDALAELTGQRNAIDAKIVQIVAEIDRDGLWGATGARSISALVAWKTGASERNAKAIAAVAHRAEEFPRCVQGLGAGRLSLDQVGVIAEGAADGSDEHYAALASVATVSQLRKAISLEPKPEPEPKPDPRRSIRTNPGDGYTTYHITLPRLEAAKFDTALEASHEGLIARWEREQDPGDPAVPMPDLVDAFMALVETGWDREATRRPHGQHTAVAVHVDLKSKVAALHLGPLLGDDERRLLTCDATCEVWFELRGRVIGTGRATRTVNRRLRRALEHRDRCCVVPGCSATRGLHAHHLVHWEDGGLTEMANLVLLCPYHHRAHHRGLITITGPADQLTVTDDRGRLLTNQSLARTPLEHHHHHH”, the “soluble on expression in E. coli” value is reported as “soluble”.

“MNPNFLDFEQPIADLQAKIEELRLVGNDNSLNIGDEISRLQDKSKTLTESIFGNLTSWQIARMARHPRRPYTLDYIENIFTEFDELHGDRHFSDDAAIVGGIARLDNQPVMIIGHQKGREVREKVRRNFGMPRPEGYRKACRLMEMAERFKMPILTFIDTPGAYPGIDAEERNQSEAIAWNLRVMARLKTPIIATVIGEGGSGGALAIGVCDQLNMLQYSTYAVISPEGCASILWKTAEKAPDAAEAMGITADRLKGLGIVDKVIAEPLGGAHRDPVAAAALIREELSSQLAMLKAFDNDALLARRYDRLMSYGL”: the “soluble on expression in E. coli” value is given as “not soluble”.

In the case of “MKRGKRLILPLLGTLILTSLFSCGVDRWPEYYPETGRDIWIDSVMRQEYLWYRDMPSPAAPDYFQKPEAFLKKAVASMDNGFSKIDSLLDEPIPSYGFDYTLYKVLDNDTAYNALISYVVPGSPAEEAGLQRGHWIMMMNGDYITKKVESELLQGSTRQLQIGVYKEVVGEDGEVTGGVVPIGETTMPASRSLVDKPVHRFEIIPWNGKKVGYLMYNEFKAGPTTDSQAYNDDLRRAFRDFQTGGVNEFVLDLRYNTGGSLDCAQLLCTMLAPADKMNQLLALLRYSDKRVEANQDLTFNPELIQSGANLNLSTVYVLTTNATRGAAEMVINCLNPYMKVVLIGTKTAGEYVATKPFVHPTDRFILNLVVCNVYNAEEKSDYATGFKPTYEYNEDSYLSTYLPFGNTNETLLNAALKIMSGITDK”, the “soluble on expression in E. coli” value was “not soluble”.

Regarding “MVFDPRTLDNPKEISAYRDQRYQGTVRDQETALRTSCTLYVGNLSYYTKEDQVYELFGRAGDVRRVIMGLDRFKKTPCGFCFVEYYTREDAELALQNISNTRMDDRVIRADWDAGFIEGRQYGRGKHGGQVRDEYRKDYDPERGGYNRAIAQKG”, the “soluble on expression in E. coli” value was “not soluble”.

For “MGSDKIHHHHHHMTAKVISFINMKGGVGKTTLCVGVSEFMAHFKSKKILLIDLDPQFNATQTLMDMYDLTDQYMNDIRFNKTIRLLFEETHSVSERPVLPKPDKVILHLDTSDVIDGELDIICGSIDLIKDDDSRKSKYKRVRKFLREQGLLKHYDYIFIDCPPTISFYTDAALYASDYYIVPTRIDRYSILGINLLKTVIEQAKFDDDLSIEPLGLIYTNYPTNNIPAPKQQEILDVLEENKDVLEIGVFRNKFHYLEHLMTGKSGNIASKYVKSKKDIEKISVEIESKVH”, the “soluble on expression in E. coli” value is recorded as “not soluble”.

Take “MGSDKIHHHHHHMRKAGESMKEFISLKIDYAFKLIFGKEGNEAILIAFLNAALKLPQERRIEAITIMNPELNKEYQGDKKSILDVRAETSEGMQINIEIQLSNQYDMEKRSLYYWAEMYSRQIREGMAYKELAKAVTINILDFNYLKQTSNYHNVFHLYEDEEKFQLTDALEMHFMELPKLLAKWRNREISPWENELVRWLLLLEGADNQEILQTLEEIAMKDPVLHQAMTAWEETSDDPRIREAYFDRRKAVLDEKAAIREAELRLKEALEKGRAAGIAAGKAEGKAEVAKKLLDLGFEITKVAEATGLSEKDIRSLKD”: the “soluble on expression in E. coli” value is “not soluble”.

For “MEDFNRRAEELDQVEKNVSLGLKKIQDEMDSIQLEVEPDDVEITSTKRGFWEHDITNLSPFPVVCRVRATSPSMFVVNKNVFLLKPMDFFKLMISRKPGQIRSHHLKIDVTQFVDTFNPINLLDYFIASNPFKTFVVRYHGAPRYWSDALEMNSWLTGEQLNEQWEKEMKKTSQEKKSSLETSEVSSVNEFVDAEEDNFPVQRAAMNITNVLTVASQVPDESNKNEPDSDIDSVVSGTIDSELANLKI”, the “soluble on expression in E. coli” value is recorded as “not soluble”.

Turning to “MQAKPQIPKDKSKVAGYIEIPDADIKEPVYPGPATPEQLNRGVSFAEENESLDDQNISIAGHTFIDRPNYQFTNLKAAKKGSMVYFKVGNETRKYKMTSIRDVKPTDVGVLDEQKGKDKQLTLITCDDYNEKTGVWEKRKIFVATEVK”, the “soluble on expression in E. coli” value is recorded as “soluble”.

“MGSDKIHHHHHHAVVSCDSILGEEEVDCSVEYRVKFKYDYNMKYADAFSREVGTVTLYAFDDNGKLVYQKTEEGDVLGEEGYTMKVDLEPGDYHLVTWAGLNDEASFSVPLVTAGESSLDELQCRMDRLYSRAADGTAVVNSKLSALWHGEVTKQSFSRAASSQVVTVPLVKNTNTIRIILQQMDGVTVEVDKFEFTITDDNGLMNYDNKLLEDETLTYYPYYRMQGGTDMGIRADGDAEDSNISVAIAQITVGRLVVENNPRLTITNKETGEPVLSIPLVKYLLLTEAEGHEMTNQEYLDRQDEYNMTFFLDESMKWINTSIIINDWVVRFNELDM”: the “soluble on expression in E. coli” value was “not soluble”.

In the case of “MKVLVVGSGGREHALLWKAAQSPRVKRLYAAPGNAGMEALAELVPWNGDVEALADWALAEGIDLTLVGPEAPLVEGIADAFQARGLLLFGPTQKAAMIEGSKAFAKGLMERYGIPTARYRVFREPLEALAYLEEVGVPVVVKDSGLAAGKGVTVAFDLHQAKQAVANILNRAEGGEVVVEEYLEGEEATVLALTDGETILPLLPSQDHKRLLDGDQGPMTGGMGAVAPYPMDEATLRRVEEEILGPLVRGLRAEGVVYRGVVYAGLMLTREGPKVLEFNARFGDPEAQALLPLLENDLVELALRVAEGRLAGTRLSWKEGAAACVVLAAPGYPESPRKGIPLHVPEPPEGVLVFHAGTRREGGRLVSAGGRVLNVVGLGRDLKEALERAYAYIPQVGFPGAVYRRDIGRRALARLST”, the “soluble on expression in E. coli” value is “soluble”.

As for “MGSDKIHHHHHHMDEQQQLANAYHSNKLSHAYLFEGDDAQTMKRVAIHFTKLILCNNSNQCELKVDTFNHPDFSYVSSDENTIKKEQIEQLVHHMNQLPIEGQYKVYIIEDFEKLTVQGENSILKFLEEPPDNTIAILLSTKPEQILDTIHSRCQHVYFKPIDKRQFIERLVEMSIARPVAEMLSTYTTQIEAASSLNEEFDLVTLRKSIIRWCQLILSNKAMALIGVIELLKQAKNRKLQLLTLSAVNGFFEDIMHAKIEMDNYYTFSDLTEEIENYANQLTFNQLILMYDQITEAHKKLNQNVNPTLVFEQIVIKGVI”, the “soluble on expression in E. coli” value is given as “not soluble”.

The record behind these values is the DeepSol protein solubility set.
